B1: TRIB1 (parent)
chain: EIGTSDQIVPEYQEDSDISSFFC
B2: BCL2L13 (parent)
chain: MASSSTVPLGFHYETKYVVLSYLG

Variants of: B1
Test: protein stability index of a GFP-peptide fusion (GPS, HEK-293T) (PSI 1-6); higher = more stable
Conditions: c terminus: native
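Note: lentivirally expressed fusions sorted by FACS into six bins by GFP to DsRed ratio, PSI derived from sequencing read proportions per bin multiplied by bin number.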

Point of comparison: Q7S, protein stability index 5.2. Against it:
- Y12K — higher, 5.54
- Y12E — lower, 4.77
- Y12R — lower, 4.61
- Y12S — lower, 4.19
- S5C — lower, 2.72
- S5P — lower, 3.07
- S5G — lower, 3.2
- S5N — lower, 2.9
- I2L — lower, 3.06
- I2N — lower, 2.74
- I2C — lower, 2.57
- I2D — lower, 4.01
- I2V — lower, 3.35
- F22Q — lower, 4.82
- F22R — lower, 4.7
- F22P — lower, 4.55
- F22T — lower, 4.48
- F22A — lower, 4.11
- F22D — lower, 3.86
- F22G — lower, 4.79
- I8A — lower, 4.82
- I8K — lower, 4.03
- I8R — lower, 3.56
- I8W — lower, 4.69
- I8D — lower, 5.12
- I8G — lower, 4.66
- I8N — higher, 5.32
- I8T — lower, 4.29
- I8E — lower, 4.19
- F21T — lower, 4.78
- F21P — lower, 4.6
- F21R — lower, 3.64
- F21D — lower, 3.9
- F21Q — lower, 4.23
- F21E — lower, 4.43
- G3M — lower, 2.83
- G3F — lower, 2.32
- S20W — lower, 2.35
- S20I — lower, 2.32
- S20M — lower, 2.62
- S20C — lower, 2.49
- S20F — lower, 2.81
- S19A — lower, 3.16
- S19C — lower, 2.38
- S19W — lower, 1.56
- S19I — lower, 1.83
- D15C — lower, 2.62
- D15A — lower, 3.59
- D15P — lower, 3.02
- D15F — lower, 2.24
- D15I — lower, 2.28
- D15G — lower, 3.71
- D15M — lower, 2.67
- E1R — lower, 2.77
- E1I — lower, 1.9
- Q13N — lower, 1.9
- Q13D — lower, 2.9
- Q13E — lower, 2.77
- Q13L — lower, 2.77
- Q13P — lower, 3.5
- Q13Y — lower, 2.12
- D17I — lower, 3.28
- D17Q — lower, 2.94
- D17W — lower, 2.42
- D17V — lower, 2.87
- D17Y — lower, 2.99
- D17L — lower, 3.2
- I18M — lower, 3.29
- I18N — lower, 3.75
- I18A — lower, 3.4
- I18K — lower, 4.39
- I18T — lower, 3.64
- I18R — lower, 4.26
- E11P — lower, 3.5
- E11D — lower, 2.18
- E11H — lower, 3.79
- E11G — lower, 2.25
- E11F — lower, 3.63
- E11L — lower, 4.33
- E11N — lower, 3.08
- E11V — lower, 2.52
- E11I — lower, 3.43
- C23A — lower, 3.08
- C23W — lower, 1.95
- C23I — lower, 2.67
- C23T — lower, 2.1
- C23V — lower, 2.77
- C23N — lower, 3.73
- C23H — lower, 3.65
- P10H — higher, 5.41
- P10Y — lower, 4.71
- Q7W — lower, 4
- Q7H — lower, 5
- Q7L — lower, 4.94
- Q7N — lower, 4.88
- V9G — higher, 5.29
- V9H — higher, 5.32
- V9I — lower, 4.93
- V9S — higher, 5.26
- V9Y — the same, 5.2
- V9C — higher, 5.31
- V9P — higher, 5.38
- V9L — lower, 4.95
- D6M — lower, 4.3
- D6W — lower, 4.11
- D6R — lower, 5.04
- D6K — lower, 5.18
- E14R — lower, 4.42
- E14F — lower, 2.33
- E14D — lower, 2.65
- E14V — lower, 2.08
- E14P — lower, 2
- E14Y — lower, 2.43
- E14L — lower, 1.99
- S16Y — lower, 2.28
- S16M — lower, 2.45
- S16G — lower, 2.9
- S16P — lower, 1.86
- S16W — lower, 2.27
- S16I — lower, 2.04
- S16H — lower, 2.68
- S16E — lower, 1.75
- T4V — lower, 2.67
- T4A — lower, 3.23
- T4M — lower, 2.67
- T4R — lower, 2.88
- T4L — lower, 2.77
- T4Q — lower, 2.25
- T4H — lower, 2.55
- T4I — lower, 2.62
- T4C — lower, 2.33

Variants of: B2
Test: as above
Conditions: c terminus: a fixed tail appended

Point of comparison: V19T, protein stability index 3.32. Against it:
- V18N — lower, 1.56
- V18I — lower, 2.81
- V18W — lower, 1.84
- V18G — lower, 1.53
- V18T — lower, 2.88
- V18F — lower, 3.21
- V18K — lower, 2.31
- V18D — lower, 1.89
- V18A — lower, 2.24
- V18L — lower, 1.88
- V18H — lower, 1.88
- V18M — lower, 2.55
- V18Y — lower, 2.6
- V18Q — lower, 1.37
- V18R — lower, 1.88
- V18P — lower, 1.91
- V18E — lower, 2.02
- V18S — lower, 1.79
- K16E — higher, 4.22
- K16Q — lower, 2.6
- K16A — lower, 2.64
- K16N — higher, 3.56
- K16M — lower, 2.61
- K16L — lower, 2.04
- K16Y — lower, 3.26
- K16H — lower, 1.46
- K16F — lower, 2.32
- K16R — lower, 2.55
- K16S — lower, 2.81
- K16G — lower, 2.38
- K16W — lower, 2.56
- K16C — higher, 4.41
- K16P — lower, 1.83
- K16I — lower, 2.74
- K16D — lower, 3.26
- K16V — lower, 2.53
- L23M — higher, 3.69
- L23F — lower, 2.12
- L23I — lower, 2.11
- L23E — lower, 1.65
- L23S — lower, 2.34
- L23H — lower, 2.59
- L23N — lower, 2.18
- L23K — lower, 2.3
- L23C — lower, 2.09
- L23P — lower, 1.71
- L23D — lower, 1.63
- L23Q — lower, 1.48
- L23R — lower, 2.21
- L23V — lower, 1.93
- L23G — lower, 1.71
- L23W — lower, 2.76
- L23T — lower, 1.44
- L23Y — lower, 2.46
- E14A — lower, 2.21
- E14Y — lower, 2.64
- E14D — lower, 2.67
- E14I — lower, 2.82
- E14W — higher, 3.62
- E14F — lower, 1.81
- E14S — lower, 2.62
- E14R — lower, 2.14
- E14G — lower, 2.09
- E14Q — higher, 3.35
- E14M — lower, 3.1
- E14H — lower, 1.75
- E14P — lower, 2.24
- E14T — lower, 2.3
- E14K — lower, 2.72
- E14N — lower, 2.48
- E14V — lower, 2.46
- Y22L — lower, 3.28
- Y22D — lower, 2.4
- Y22G — lower, 2.51
- Y22Q — lower, 3.03
- Y22W — lower, 2.89
- Y22R — lower, 1.69
- Y22F — lower, 2.49
- Y22N — lower, 1.63
- Y22S — higher, 3.81
- Y22E — lower, 1.85
- Y22H — lower, 3
- Y22M — lower, 2.7
- Y22K — lower, 2.37
- Y22T — lower, 2.81
- Y22P — lower, 1.47
- Y22V — lower, 1.89
- Y22I — lower, 2.02
- Y22A — lower, 1.89
- Y22C — lower, 2.8
- Y13V — lower, 2.51
- Y13W — lower, 2.16
- Y13T — lower, 2.28
- L20H — lower, 2.01
- L20S — lower, 1.69
- L20R — lower, 1.48
- L20V — lower, 2.82
- L20G — lower, 1.74
- L20F — higher, 3.51
- L20K — lower, 2.52
- L20T — lower, 2.17
- L20M — lower, 2.37
- L20D — lower, 2.18
- L20E — lower, 1.78
- L20C — lower, 2.58
- L20Y — lower, 2.88
- L20W — lower, 2.22
- L20P — lower, 1.7
- L20A — lower, 2.12
- L20Q — lower, 2.19
- L20I — lower, 1.71
- L20N — lower, 1.65
- V19N — lower, 1.94
- V19F — lower, 1.5
- V19L — lower, 2.29
- V19W — lower, 1.91
- V19K — lower, 1.34
- V19C — lower, 2.34
- V19E — lower, 1.7
- V19H — lower, 1.73
- V19D — lower, 1.45
- V19I — lower, 3.19
- V19S — lower, 2.19
- V19R — lower, 1.41
- V19G — lower, 2.09
- V19Q — lower, 1.71
- V19Y — lower, 2.63
- V19M — lower, 3.27
- V19A — lower, 1.99
- V19P — lower, 2.2
- G24L — lower, 2.98
- G24P — lower, 2.71
- G24R — lower, 2.06
- G24W — higher, 3.89
- G24E — lower, 2.05
- G24F — higher, 3.97
- G24T — lower, 2.13
- G24Y — lower, 1.89
- G24C — lower, 2.21
- G24V — higher, 3.35
- G24D — lower, 2.38
- G24N — lower, 2.1
- G24K — lower, 1.45
- G24M — lower, 1.84
- G24S — lower, 1.97
- G24I — lower, 1.75
- G24Q — lower, 2.62
- G24A — lower, 2.8
- G24H — lower, 2.42
- S21K — lower, 1.45
- S21C — lower, 3.12
- S21Q — higher, 3.52
- S21A — higher, 3.51
- S21T — lower, 2.72
- S21R — higher, 3.78
- S21F — higher, 3.84
- S21W — higher, 3.36
- S21D — lower, 2.24
- S21H — lower, 2.27
- S21E — lower, 1.24
- S21N — lower, 2.4
- S21P — lower, 2.35
- S21L — higher, 3.41
- S21I — lower, 2.36
- S21Y — lower, 2.51
- S21G — lower, 1.62
- Y17M — higher, 3.56
- Y17D — lower, 1.73
- Y17F — higher, 3.51
- Y17H — lower, 1.95
- Y17T — lower, 1.62
- Y17K — lower, 2.1
- Y17N — lower, 1.62
- Y17Q — lower, 1.84
- Y17L — lower, 2.22
- Y17A — lower, 2.67
- Y17S — lower, 1.66
- Y17P — lower, 1.95
- Y17R — lower, 1.66
- Y17C — lower, 2.48
- Y17E — lower, 1.86
- Y17G — lower, 2
- T15R — lower, 1.36
- T15M — lower, 2.79
- T15Y — lower, 2.75
- T15D — lower, 2.03
- T15I — lower, 3.13
- T15N — lower, 1.75
- T15Q — lower, 2.84
- T15K — lower, 1.4
- T15H — lower, 1.91
- T15E — lower, 2.61
- T15V — lower, 3.06
- T15F — lower, 1.5
- T15G — lower, 1.34
- T15A — lower, 1.86
- T15C — lower, 1.71
- T15P — lower, 2.06
- T15L — lower, 2.1
- T15W — lower, 2.05
- T15S — lower, 1.11

Source: the supplement of paper PMC10567573
